Assays:
GroEL = target: T1, GroEL (Escherichia coli MG1655, UniProt P0A6F5 1-548); test: cryo-EM structure; steady state continuous turnover reference, conventional plunger at around 20 s after the start of the reaction; GroEL (3.7 mg/ml) mixed with GroES (0.7 mg/ml), ATP (2 mM), CHAPS (0.1 %); 22 °C; fractions of complexes from 3D classification of particles; details: both partners purified
T1 construct: GroEL of Escherichia coli MG1655; synthetic construct based on the GroEL gene, in a pET-15b vector; also called GroEL-ATP; GroEL-(ADP); source: E. coli BL21, purified (ammonium sulfate cuts, Source Q15 anion exchange, Superose gel filtration); copies: 14

[1] = target: the molecule itself; test: as above

T1 sequence (P0A6F5 whole entry): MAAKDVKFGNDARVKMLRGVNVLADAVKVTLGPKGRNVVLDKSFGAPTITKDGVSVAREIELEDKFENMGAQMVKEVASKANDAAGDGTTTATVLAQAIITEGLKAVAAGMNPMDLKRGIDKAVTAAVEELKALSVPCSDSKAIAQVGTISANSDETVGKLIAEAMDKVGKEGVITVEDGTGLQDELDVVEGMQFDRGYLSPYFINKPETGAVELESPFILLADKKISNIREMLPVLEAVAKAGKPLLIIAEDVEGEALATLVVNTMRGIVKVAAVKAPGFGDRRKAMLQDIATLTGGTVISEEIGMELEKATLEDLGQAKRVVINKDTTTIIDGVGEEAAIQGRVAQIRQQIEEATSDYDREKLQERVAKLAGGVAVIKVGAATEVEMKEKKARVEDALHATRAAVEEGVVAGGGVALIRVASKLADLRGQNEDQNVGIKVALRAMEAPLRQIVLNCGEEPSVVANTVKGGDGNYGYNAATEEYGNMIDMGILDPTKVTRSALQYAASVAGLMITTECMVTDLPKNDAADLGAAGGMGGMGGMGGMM

stoichiometry N (GroEL): 2
B1: GroES (natural protein, Escherichia coli MG1655, UniProt P0A6F9 1-97, looked up)
chain: MNIRPLHDRVIVKRKEVETKSAGGIVLTGSAAAKSTRGEVLAVGNGRILENGEVKPLDVKVGDIVIFNDGYGVKSEKIDNEEVLIMSESDILAIVEA
notes: GroES of Escherichia coli MG1655; synthetic construct based on the GroES gene, in a pET-15b vector; source: E. coli BL21, purified (Source Q15 anion exchange, Superdex 200 gel filtration)
binding result [1]: binds

Source: doi:10.1101/2022.10.21.513149, “Time-resolved cryo-EM using a combination of droplet microfluidics with on-demand jetting” (bioRxiv, 2022)
